Data published in article PMC9047656 (ACS Nano, 2022).

Molecular target: the molecule itself
Assay: SEC-MALS

B1: canavalin (natural protein, Canavalia ensiformis (jack bean), UniProt P50477 27-445, looked up)
chain: HSGHSGGEAEDESEESRAQNNPYLFRSNKFLTLFKNQHGSLRLLQRFNEDTEKLENLRDYRVLEYCSKPNTLLLPHHSDSDLLVLVLEGQAILVLVNPDGRDTYKLDQGDAIKIQAGTPFYLINPDNNQNLRILKFAITFRRPGTVEDFFLSSTKRLPSYLSAFSKNFLEASYDSPYDEIEQTLLQEEQEGVIVKMPKDQIQEISKHAQSSSRKTLSSQDKPFNLRSRDPIYSNNYGKLYEITPEKNSQLRDLDILLNCLQMNEGALFVPHYNSRATVILVANEGRAEVELVGLEQQQQQGLESMQLRRYAATLSEGDIIVIPSSFPVALKAASDLNMVGIGVNAENNERNFLAGHKENVIRQIPRQVSDLTFPGSGEEVEELLENQKESYFVDGQPRHIDAGGKARRAHLPNLFRTFY
stoichiometry N: 3
